Measured values published in PMC5636754, “Structural and biochemical characterization of DAXX-ATRX interaction” (Protein & Cell, 2017).

T1: DAXX interaction domain of ATRX (DID_(ATRX)), aa 1,189-1,326 (human, UniProt P46100 1189-1326)
T1 construct: also called full length DID_(ATRX); ATRX_(1,189–1,326)
T1 sequence (looked up): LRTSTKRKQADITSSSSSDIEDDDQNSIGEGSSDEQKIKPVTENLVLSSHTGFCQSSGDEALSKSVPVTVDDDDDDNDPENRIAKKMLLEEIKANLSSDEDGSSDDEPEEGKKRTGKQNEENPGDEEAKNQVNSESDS

T2: DAXX helical bundle (DHB) domain of death domain-associated protein (DAXX), aa 55-144 (UniProt Q9UER7 55-144)
T2 chain: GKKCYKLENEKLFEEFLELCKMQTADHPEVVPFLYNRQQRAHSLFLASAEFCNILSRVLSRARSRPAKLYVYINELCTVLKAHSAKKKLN

B1: DAXX helical bundle (DHB) domain of death domain-associated protein (DAXX), aa 55-144 (domain or fragment, UniProt Q9UER7 55-144, looked up)
chain: GKKCYKLENEKLFEEFLELCKMQTADHPEVVPFLYNRQQRAHSLFLASAEFCNILSRVLSRARSRPAKLYVYINELCTVLKAHSAKKKLN
notes: Death domain-associated protein (DAXX), DHB domain, residues 55-144; they may stand in the supplementary file; also called DHB_(DAXX); DBH_(DAXX)

Tests used:
[1] = target: B1; experiment: ITC; DHB_(DAXX) titrated with ATRX fragments or peptides; settings: both partners purified
[2] = target: T1, DAXX interaction domain of ATRX …; experiment: as above; settings: both partners purified
[3] = target: T2, DAXX helical bundle (DHB) domain of …; experiment: ITC

Binder	Kd [1]	Kd [2]	binding result [1]	Kd [3]
DDDDDDNDPENRIAKKMLLEEIKANLS (peptide, UniProt P46100 1259-1285, looked up, begins with the polyD loop 1259-DDDDDD-1264) [ATRX_(1,259–1,285), minimum ATRX motif of 27 residues]	0.07 µM			
SSGDEALSKSVPVTVDDDDDDNDPENRIAKKMLLEEIKANLS (domain or fragment, human, UniProt P46100 1244-1285, looked up, source: co-expressed with DHB_(DAXX) and purified for the crystal) [ATRX_(1,244–1,285), 42-residue loop-helix segment of DID_(ATRX)]	0.07 µM			
B1		4.5 µM		
NDPENRIAKKMLLEEIKANLS (peptide, UniProt P46100 1265-1285, looked up, the wild type is called 'wild type peptide control'; also called WT) [ATRX_(1,265–1,285), α-helix frame only (αDID), wild type peptide]	1 µM			
NDPQNRIAKKMLLEEIKANLS (peptide, UniProt P46100 1265-1285, looked up, source: synthetic peptide) [ATRX_(1,265–1,285) E1268Q mutant peptide]			binds	5.6 µM
NDPENRIAKKMLLEEAKANLS (peptide, UniProt P46100 1265-1285, looked up, source: synthetic peptide) [ATRX_(1,265–1,285) I1280A mutant peptide]	10.9 µM			
NDPENRIAKKMLLEQIKANLS (peptide, UniProt P46100 1265-1285, looked up, source: synthetic peptide) [ATRX_(1,265–1,285) E1279Q mutant peptide]			binds	3.2 µM
NDPENRIAAKMLLEEIKANLS (peptide, UniProt P46100 1265-1285, looked up, source: synthetic peptide) [ATRX_(1,265–1,285) K1273A mutant peptide]			binds	2.3 µM
NNPENRIAKKMLLEEIKANLS (peptide, UniProt P46100 1265-1285, looked up, source: synthetic peptide) [ATRX_(1,265–1,285) D1266N mutant peptide]			binds	7 µM
NDPENRIAKKMLAEEIKANLS (peptide, UniProt P46100 1265-1285, looked up, source: synthetic peptide) [ATRX_(1,265–1,285) L1277A mutant peptide]	80.6 µM			
